Where two headings read alike, the source gives them in different places.
Key:
Experiment in all cases: SAXS
[1] = molecular target: HUαα P63E (Escherichia coli, UniProt P0ACF0 1-90, P63E)
[2] = molecular target: HUα38α38 (Escherichia coli, UniProt P0ACF0 1-90, E38K;V42L)
[3] = molecular target: HUαα G82E (Escherichia coli, UniProt P0ACF0 1-90, G82E)
[4] = molecular target: T1, HUαβ (Escherichia coli, UniProt P0ACF0;P0ACF4 1-90;1-90)
[5] = molecular target: HUαα V45E (Escherichia coli, UniProt P0ACF0 1-90, V45E)
[6] = molecular target: T2, HUαα (Escherichia coli, UniProt P0ACF0 1-90)
[7] = molecular target: T2, HUαα; remark: listed apart in the source
[8] = molecular target: T1, HUαβ; remark: listed apart in the source

Measured: binding result

B1: 80-bp DNA (dsDNA)
DNA 1: AATGAGGTAACAACGAAAGCAGATGATAGCTGCTTATCAATTTGTTGCAAACAAGTAGCCGCGCCCAATGAGGTAACAAT
DNA 2: ATTGTTACCTCATTGGGCGCGGCTACTTGTTTGCAACAAATTGATAAGCAGCTATCATCTGCTTTCGTTGTTACCTCATT
not listed: [7] | [8]
binds: all other assays above

B2: 20-bp DNA (dsDNA)
DNA 1: GTTCAATTGTTGTTAACTTG
DNA 2: CAAGTTAACAACAATTGAAC
binds: [7] | [8]

Reference: paper PMC4966879
